Data: US20140255408A1 (Janssen / Centocor, published 2014)
Where a chain is given by its changes, count along the chain named. One block for each binder: values may come before it.

Experiments:
human c-Met on cells [1] = biological target: T1, human c-Met on cells (human, UniProt P08581 25-1390); assay: cell-based or functional assay
[2] = biological target: T2, Recombinant human c-Met Fc chimera (human, UniProt P08581 16-932); assay: HGF competition assay on coated c-Met-Fc, competitor biotinylated HGF
T2 construct: not shown: Fc part

[3] = biological target: T2, Recombinant human c-Met Fc chimera; assay: SPR (ProteOn), c-Met-Fc captured on anti-human Fc IgG, FN3 domain as analyte
human c-Met on cells [4] = biological target: T1, human c-Met on cells; assay: H441 cell binding assay, anti-His detection
Procedure: Purified FN3 domains (50 μL/well; 0 to 1000 nM) were added to the cells for 1 hour at 4° C. in duplicate plates. […] Cells were incubated with biotinylated-anti HIS antibody (diluted 1:160 in FACS stain buffer, 50 μL/well, R&D Systems, cat #BAM050) for 30 minutes at 4° C. […] Cells were washed three times with FACS stain buffer (150 μL/well) and left in FACS stain buffer (50 μL/well).

human EGFR on cells = human EGFR on cells (human, UniProt P00533 25-1210); assay: cell-based or functional assay

B1: P114AR7P95-D3 (designed binder, not shown: small tags and cut ends)
chain: LPAPKNLVVSRVTEDSARLSWTAPDAAFDSFWIRYFEFLGSGEAIVLTVPGSERSYDLTGLKPGTEYVVNIMGVKGGSISYPLSAIFTT
- pMet inhibition in H441 cells (IC50) (human c-Met on cells [1]): 4.6 nM
- IC50 [2]: 0.2 nM
- Kd [3]: 0.3 nM

B5: P114AR7P92-F3 (designed binder, not shown: small tags and cut ends)
chain: B1 chain with V68I, Y81H
- Inhibition of Proliferation of U87-MG cells (IC50) (human c-Met on cells [1]): 2.7 nM
- pMet inhibition in H441 cells (IC50) (human c-Met on cells [1]): 8.3 nM
- IC50 [2]: 0.2 nM
- Kd [3]: 0.4 nM

B8: P114AR7P92-G8 (designed binder, not shown: small tags and cut ends)
chain: B1 chain with W32V, N70Q, M72L, S78Y, Y81I
- Inhibition of Proliferation of U87-MG cells (IC50) (human c-Met on cells [1]): 124 nM
- pMet inhibition in H441 cells (IC50) (human c-Met on cells [1]): 155 nM
- EC50 (human c-Met on cells [4]): 5.9 nM
- IC50 [2]: 1.6 nM
- Kd [3]: 1 nM

B12: P114AR7P92-F6 (designed binder, not shown: small tags and cut ends)
chain: B1 chain with M72L, S78G, I79L, Y81V
- Inhibition of Proliferation of U87-MG cells (IC50) (human c-Met on cells [1]): 350 nM
- pMet inhibition in H441 cells (IC50) (human c-Met on cells [1]): 165 nM
- EC50 (human c-Met on cells [4]): 4.9 nM
- IC50 [2]: 2.2 nM
- Kd [3]: 3.1 nM

B13: P114AR7P92-H5 (designed binder, not shown: small tags and cut ends)
chain: B1 chain with F36L, G40L, S41G, N70Q, S78T, I79V, Y81P
- Inhibition of Proliferation of U87-MG cells (IC50) (human c-Met on cells [1]): 672 nM
- pMet inhibition in H441 cells (IC50) (human c-Met on cells [1]): 766 nM
- EC50 (human c-Met on cells [4]): 22 nM
- Kd [3]: 11.6 nM

B14: P114AR5P75-E9 (designed binder, not shown: small tags and cut ends)
chain: B1 chain with W32F, F36D, G40R, V68W, N70T, M72L, S78L, I79V, Y81T
- Inhibition of Proliferation of U87-MG cells (IC50) (human c-Met on cells [1]): 1190 nM
- pMet inhibition in H441 cells (IC50) (human c-Met on cells [1]): 1.42 µM
- IC50 [2]: 51.9 nM
- Kd [3]: 45.8 nM

B15: P54AR4-47 (designed binder)
chain: LPAPKNLVVSEVTEDSLRLSWWDPFSFYDSFLIQYQESEKVGEAINLTVPGSERSYDLTGLKPGTEYTVSIYGVHNVYKDTNMRGLPLSAEFTT
- Phospho-EGFR IC50 (A431 cells) (human EGFR on cells): 295 nM

More lines, now with the values ahead:

- Inhibition of Proliferation of U87-MG cells (IC50) (human c-Met on cells [1]): 692 nM
- pMet inhibition in H441 cells (IC50) (human c-Met on cells [1]): 659 nM
- EC50 (human c-Met on cells [4]): 11.3 nM
- Kd [3]: 20 nM
B2: P114AR7P95-G7 (designed binder, not shown: small tags and cut ends)
chain: B1 chain with F38L, G40S, S41T, Y81P

- Inhibition of Proliferation of U87-MG cells (IC50) (human c-Met on cells [1]): 14.4 nM
- pMet inhibition in H441 cells (IC50) (human c-Met on cells [1]): 16 nM
- EC50 (human c-Met on cells [4]): 2.3 nM
B3: P114AR7P93-D11 (designed binder, not shown: small tags and cut ends)
chain: B1 chain with N70G, M72N, S78Y

- Inhibition of Proliferation of U87-MG cells (IC50) (human c-Met on cells [1]): 270 nM
- pMet inhibition in H441 cells (IC50) (human c-Met on cells [1]): 288 nM
- EC50 (human c-Met on cells [4]): 12.9 nM
- IC50 [2]: 2.9 nM
- Kd [3]: 3.3 nM
B4: P114AR7P93-H9 (designed binder, not shown: small tags and cut ends)
chain: B1 chain with N70Q, M72I, S78H, Y81L

- Inhibition of Proliferation of U87-MG cells (IC50) (human c-Met on cells [1]): 104 nM
- pMet inhibition in H441 cells (IC50) (human c-Met on cells [1]): 460 nM
- EC50 (human c-Met on cells [4]): 3.8 nM
- IC50 [2]: 1 nM
- Kd [3]: 6.9 nM
B6: P114AR7P93-G8 (designed binder, not shown: small tags and cut ends)
chain: B1 chain with G60D, V68G, N70T, M72N, S78R, I79V, Y81T

- Inhibition of Proliferation of U87-MG cells (IC50) (human c-Met on cells [1]): 19.4 nM
- pMet inhibition in H441 cells (IC50) (human c-Met on cells [1]): 19.5 nM
- EC50 (human c-Met on cells [4]): 1.4 nM
- Kd [3]: 0.4 nM
B7: P114AR7P95-D4 (designed binder, not shown: small tags and cut ends)
chain: B1 chain with N70Q, M72L, S78Y, Y81I

- Inhibition of Proliferation of U87-MG cells (IC50) (human c-Met on cells [1]): 17.4 nM
- pMet inhibition in H441 cells (IC50) (human c-Met on cells [1]): 9.8 nM
- IC50 [2]: 0.3 nM
B9: P114AR7P95-B9 (designed binder, not shown: small tags and cut ends)
chain: B1 chain with N70Q, M72L, Y81V

- Inhibition of Proliferation of U87-MG cells (IC50) (human c-Met on cells [1]): 281 nM
- pMet inhibition in H441 cells (IC50) (human c-Met on cells [1]): 210 nM
- EC50 (human c-Met on cells [4]): 4.1 nM
- Kd [3]: 3.7 nM
B10: P114AR7P95-H8 (designed binder, not shown: small tags and cut ends)
chain: B1 chain with L39V, G40S, S41K, Y81P

- Inhibition of Proliferation of U87-MG cells (IC50) (human c-Met on cells [1]): 209 nM
- pMet inhibition in H441 cells (IC50) (human c-Met on cells [1]): 205 nM
- EC50 (human c-Met on cells [4]): 3.2 nM
B11: P114AR7P95-E3 (designed binder, not shown: small tags and cut ends)
chain: B1 chain with N70Q, S78T, I79V, Y81P
